Experimental data: patent US20240418729A1

Key:
[1] = target: human kappa light chains (kappa LCs) of control pooled human serum (human); test: affinity capture from 50 µl IgG-depleted serum, elution, LysC digestion, PRM mass spectrometry
[2] = target: human lambda light chains (lambda LCs) of control pooled human serum (human); test: affinity capture from 100 µl IgG-depleted serum, elution, LysC digestion, PRM mass spectrometry
[3] = target: human kappa light chains (kappa LCs) of control pooled human serum (human); test: affinity capture from IgG-depleted serum, elution, LysC digestion, PRM mass spectrometry

Question: For “Capture Select affinity beads specific for kappa (KappaXP) LCs”, which fold increase in kappa FLC dimer signal compared to un-enriched serum [1] is on record?
Answer: Its fold increase in kappa FLC dimer signal compared to un-enriched serum is 186 fold.

Question: For “Capture Select affinity beads specific for lambda (LambdaXP) LCs”, which fold increase in lambda FLC dimer signal compared to un-enriched serum [2] is on record?
Answer: The fold increase in lambda FLC dimer signal compared to un-enriched serum was 113 fold.

Question: How did the fold increase in kappa FLC dimer signal compared to un-enriched serum [3] turn out when protein L agarose was run?
Answer: The fold increase in kappa FLC dimer signal compared to un-enriched serum was 155 fold.
